Measurements published in US20200270319A1 (KOLON TISSUEGENE, published 2020).

Target: Recombinant human PTEN protein (human, UniProt P60483 1-403 (dog entry))
Assay: cell-based or functional assay

Recombinant human PTEN protein, sequence (P60483 whole entry): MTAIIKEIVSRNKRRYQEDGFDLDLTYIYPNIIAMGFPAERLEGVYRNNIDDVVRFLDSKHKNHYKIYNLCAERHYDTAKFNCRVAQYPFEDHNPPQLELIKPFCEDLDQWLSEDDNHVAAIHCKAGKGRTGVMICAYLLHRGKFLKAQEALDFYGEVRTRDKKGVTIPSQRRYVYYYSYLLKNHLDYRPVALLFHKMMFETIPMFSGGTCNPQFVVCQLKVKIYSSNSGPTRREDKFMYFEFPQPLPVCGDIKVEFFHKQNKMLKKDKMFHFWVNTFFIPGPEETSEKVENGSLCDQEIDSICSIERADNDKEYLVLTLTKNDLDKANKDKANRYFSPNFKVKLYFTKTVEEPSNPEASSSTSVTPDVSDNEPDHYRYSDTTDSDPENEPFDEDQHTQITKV

IC50, in vitro PTEN activity assay (lipid phosphatase, C8-PIP3 liposome, Malachite Green): 87.1 µM | PTEN activity remaining with 10 µM peptide, compared with positive control: 86%
B1: TGN-3 peptide (peptide)
peptide: RRRRRRRRHYRYVDTTDVDPENEPFDEDQHTQITKV
modifications: C-terminal amide
